PMC3245779

Biological target: BSG-S variant E92K (Ok(a-) variant) (human)
Assay: SPR

“PfRh5 (purified, SPR analyte) (from UniProt Q8IFM5 25-526) (ligand)” gave a fold lower affinity than the BSG reference sequence (equilibrium) of 2 fold.
